Data from IntAct's records for PubMed 20453063.

Biological target: chd8_human CHD8 (UniProt Q9HCK8)
Sequence of UniProt Q9HCK8 (Q9HCK8 whole entry): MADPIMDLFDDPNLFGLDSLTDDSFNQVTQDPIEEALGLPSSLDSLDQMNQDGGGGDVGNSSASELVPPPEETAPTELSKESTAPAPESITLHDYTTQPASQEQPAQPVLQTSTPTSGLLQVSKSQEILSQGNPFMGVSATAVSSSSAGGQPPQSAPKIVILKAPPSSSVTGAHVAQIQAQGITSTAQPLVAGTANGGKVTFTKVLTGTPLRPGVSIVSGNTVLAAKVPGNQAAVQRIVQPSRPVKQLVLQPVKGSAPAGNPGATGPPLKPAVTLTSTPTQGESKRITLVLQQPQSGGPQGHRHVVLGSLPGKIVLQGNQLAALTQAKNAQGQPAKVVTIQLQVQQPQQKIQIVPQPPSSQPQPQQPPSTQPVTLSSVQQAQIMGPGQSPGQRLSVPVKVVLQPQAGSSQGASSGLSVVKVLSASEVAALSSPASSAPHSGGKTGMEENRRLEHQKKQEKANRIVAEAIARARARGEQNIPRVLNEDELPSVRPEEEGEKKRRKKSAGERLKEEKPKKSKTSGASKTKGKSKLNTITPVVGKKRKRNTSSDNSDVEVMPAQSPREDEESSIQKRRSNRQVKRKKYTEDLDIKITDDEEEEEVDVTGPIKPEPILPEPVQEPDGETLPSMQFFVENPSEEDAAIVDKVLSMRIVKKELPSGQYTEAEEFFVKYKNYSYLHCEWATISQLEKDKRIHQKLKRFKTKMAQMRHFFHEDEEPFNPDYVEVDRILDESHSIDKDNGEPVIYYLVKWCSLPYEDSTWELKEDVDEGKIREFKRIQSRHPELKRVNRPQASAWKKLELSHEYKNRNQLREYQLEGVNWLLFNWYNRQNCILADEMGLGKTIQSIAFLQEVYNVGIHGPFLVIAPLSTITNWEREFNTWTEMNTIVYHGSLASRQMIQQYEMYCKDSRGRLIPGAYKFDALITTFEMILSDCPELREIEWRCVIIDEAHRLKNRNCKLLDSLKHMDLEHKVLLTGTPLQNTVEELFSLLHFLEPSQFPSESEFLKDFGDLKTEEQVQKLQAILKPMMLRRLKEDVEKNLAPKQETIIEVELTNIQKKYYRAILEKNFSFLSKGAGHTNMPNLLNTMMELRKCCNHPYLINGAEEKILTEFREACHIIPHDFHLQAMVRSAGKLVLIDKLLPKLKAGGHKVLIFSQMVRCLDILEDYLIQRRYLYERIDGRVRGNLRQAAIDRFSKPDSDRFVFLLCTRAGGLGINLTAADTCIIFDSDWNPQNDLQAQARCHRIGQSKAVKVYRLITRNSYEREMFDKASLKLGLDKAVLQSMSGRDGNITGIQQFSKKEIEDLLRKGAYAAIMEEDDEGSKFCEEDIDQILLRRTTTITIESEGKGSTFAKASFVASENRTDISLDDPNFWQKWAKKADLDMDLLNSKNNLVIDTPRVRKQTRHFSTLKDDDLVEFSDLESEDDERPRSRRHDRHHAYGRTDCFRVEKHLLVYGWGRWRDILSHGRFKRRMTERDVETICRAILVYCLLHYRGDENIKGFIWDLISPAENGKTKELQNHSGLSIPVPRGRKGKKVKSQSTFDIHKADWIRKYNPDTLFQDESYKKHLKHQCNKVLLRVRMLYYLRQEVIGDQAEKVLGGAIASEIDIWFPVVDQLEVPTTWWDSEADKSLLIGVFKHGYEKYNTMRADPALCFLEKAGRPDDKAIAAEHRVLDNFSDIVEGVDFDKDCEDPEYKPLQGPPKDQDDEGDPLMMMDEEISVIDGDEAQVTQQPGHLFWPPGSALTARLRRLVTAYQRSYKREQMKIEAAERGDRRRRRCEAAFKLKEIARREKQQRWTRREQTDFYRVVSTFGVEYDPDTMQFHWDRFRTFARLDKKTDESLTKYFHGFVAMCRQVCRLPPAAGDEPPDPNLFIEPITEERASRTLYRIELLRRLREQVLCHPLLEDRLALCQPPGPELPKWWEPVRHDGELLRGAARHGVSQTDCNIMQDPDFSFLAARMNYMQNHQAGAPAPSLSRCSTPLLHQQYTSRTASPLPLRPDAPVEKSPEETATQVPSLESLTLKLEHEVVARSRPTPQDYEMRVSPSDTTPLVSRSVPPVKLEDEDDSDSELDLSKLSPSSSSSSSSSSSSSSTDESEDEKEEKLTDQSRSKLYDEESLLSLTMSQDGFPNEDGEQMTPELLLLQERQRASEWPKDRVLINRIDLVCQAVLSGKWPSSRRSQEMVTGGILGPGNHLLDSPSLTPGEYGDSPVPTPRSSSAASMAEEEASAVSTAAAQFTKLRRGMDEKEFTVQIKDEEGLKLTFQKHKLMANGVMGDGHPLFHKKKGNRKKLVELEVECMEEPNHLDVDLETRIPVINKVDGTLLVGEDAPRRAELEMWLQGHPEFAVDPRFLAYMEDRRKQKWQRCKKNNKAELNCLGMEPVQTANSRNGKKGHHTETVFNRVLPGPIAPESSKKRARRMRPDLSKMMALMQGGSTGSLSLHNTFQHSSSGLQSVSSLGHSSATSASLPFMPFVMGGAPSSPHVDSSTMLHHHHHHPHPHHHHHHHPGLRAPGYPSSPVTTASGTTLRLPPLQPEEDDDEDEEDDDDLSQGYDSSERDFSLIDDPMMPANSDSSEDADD

Effect of a mutation on the interaction, disrupting interaction:
Chromodomain-helicase-DNA-binding protein 7 (Homo sapiens), Q9P2D1 W2091R
Chromodomain-helicase-DNA-binding protein 7 (Homo sapiens), Q9P2D1 G2108R
Chromodomain-helicase-DNA-binding protein 7 (Homo sapiens), Q9P2D1 H2096R
